± gives the standard deviation of the averaged measurements.
System: Saccharomyces cerevisiae
Assay: protein stability index of tFT-peptide fusion (C-terminal peptide) (PSI (0-1 scale)); higher = more stable (slower turnover)
Conditions: genetic background: wild type; temperature: 30 C
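Also: PSI is a weighted mean of sequencing reads over stability bins, variants kept only with over 10 reads, mCherry proximal and sfGFP distal, peptide attached via GGGS linker.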

Sequence	protein stability index
RSWISGVRPSYP	0.75 ± 0.036
NKKGMSIWANER	0.68915 ± 0.0002
TRPGKRNGRPPR	0.6995 ± 0.0008
SSLPSSLSPLTS	0.699 ± 0.024
PCPLAHSLWLMF	0.612 ± 0.056
SPLHASLPPVSL	0.704 ± 0.025
RSRRRFPPPPPI	0.672 ± 0.062
GHDWRNPRLVED	0.645 ± 0.062
SSLPRLGSSPRR	0.66 ± 0.019
DGDIIVVQINKL	0.6471 ± 0.0039
LLPPSHRASPRQ	0.694 ± 0.027
GYEDTLKKILEI	0.673 ± 0.099
AVGGGVVGQGWV	0.604 ± 0.012
LPCGRGQLVGSQ	0.677 ± 0.032
TPKWRRRLNQGL	0.719 ± 0.032
CFPSFVTFSSLF	0.7722 ± 0.0041
PSPPPLGPLPAL	0.667 ± 0.037
VFSLPFPSRSPL	0.805 ± 0.028
YGGGGWRGVALG	0.65 ± 0.043
VSLPGTWSSLSA	0.6554 ± 0.0064
FPFFSSIPPRVV	0.574 ± 0.069
VIMGLKYYRKCE	0.658 ± 0.014
PRLPPPSPPPLP	0.735 ± 0.01
PPPPSPPATPAP	0.652 ± 0.015
EQFLRCEALGAW	0.661 ± 0.02

Sequence	protein stability index
EVWMGIRSLSVV	0.634 ± 0.096
QRWTAGTQIRPV	0.706 ± 0.0086
RDVWPFTGKRAL	0.672 ± 0.014
FPSLPSPSPSSH	0.684 ± 0.031
RLSRPPRIPRSQ	0.654 ± 0.0087
RSKDEKNKIGYK	0.683 ± 0.044
AQSYPHPPPPPP	0.644 ± 0.041
PPLPATHLPPPP	0.802 ± 0.058
WAFGSTVSSGIV	0.689 ± 0.017
GWSSSCTATRSA	0.743 ± 0.045
AAAPWSVSGCPG	0.6611 ± 0.0049
VRWISVGNGGVR	0.725 ± 0.013
CVPLPPVLPRSC	0.6607 ± 0.0018
GGCPPFGVSSVG	0.708 ± 0.013
PPPGRPDAMTPP	0.676 ± 0.022
DKWVRDCLTESR	0.691 ± 0.014
PPFFFIDMGASN	0.697 ± 0.054
CCFFPPPGRTRQ	0.676 ± 0.015
QCYNGSSGVSNL	0.676 ± 0.028
GITSGRAVGGRA	0.713 ± 0.011
CRGEGGRTVING	0.634 ± 0.063
IDYCWLPDGYQM	0.683 ± 0.068
LFGGCRLVGSVV	0.711 ± 0.023
RRSLKIQKNMKR	0.686 ± 0.083
QVGPSPCHPFTL	0.684 ± 0.0091

Sequence	protein stability index
SLASSLHTYDLT	0.661 ± 0.032
RLIDMNFPVKKE	0.709 ± 0.04
CPTHPLFLDSYV	0.676 ± 0.026
GSWIGGSVIGGQ	0.763 ± 0.073
AKDSTAVVRLGT	0.703 ± 0.029
HSFNITSESQKI	0.653 ± 0.0066
REVIGFLSYWKG	0.711 ± 0.14
HPPHPPPLPGSP	0.802 ± 0.076
LYPGYIVVANYK	0.661 ± 0.032
EVIRGNEGGKER	0.708 ± 0.018
FSVPPLPLPPRL	0.757 ± 0.095
GYRKREMRGELQ	0.678 ± 0.038
MALAVRVVGCGA	0.594 ± 0.014
EEKREERGDRGR	0.579 ± 0.01
LCSPSPPCPRLP	0.748 ± 0.025
TRNNDKQTDTIV	0.729 ± 0.048
SPTPSPCIPSPP	0.701 ± 0.0089
ASNEPQRQELGS	0.693 ± 0.018
PTETRRIGHHEG	0.661 ± 0.043
PALLTICRTSLP	0.64 ± 0.00076
RGSRFVAGGGSV	0.702 ± 0.038
LPVSISIGNVGR	0.627 ± 0.025
LPPPRPGLPFTF	0.704 ± 0.057
DEGLLPLPAVIP	0.746 ± 0.04
PAHPSDIGAAAP	0.675 ± 0.042

Sequence	protein stability index
TKKNKTKKGQNK	0.7099 ± 0.006
THPFLRTHPPVE	0.714 ± 0.097
ILTALRNQPFLM	0.669 ± 0.033
DFAGVCRWSLRG	0.6446 ± 0.0025
CVATTHASHTSP	0.694 ± 0.033
GVGGVCEMVAIK	0.506 ± 0.028
VVYGVSHEETST	0.622 ± 0.018
PSCCPPATLPPP	0.687 ± 0.056
FGCSRRERKGRG	0.826 ± 0.016
AKRKEAGKPHAN	0.695 ± 0.085
TMVAVTSILGGL	0.655 ± 0.084
NLRVANLAQRTE	0.703 ± 0.05
ETQEAKGGMTRQ	0.667 ± 0.0091
REEREISGNLLV	0.7899 ± 0.0075
GVWAVGGGGGGR	0.665 ± 0.069
RPCPGPLPPPPP	0.662 ± 0.013
EVTEVCTIKVHV	0.577 ± 0.0097
LMYGSVGVRGGE	0.76 ± 0.064
PLRSTYPSLLLP	0.691 ± 0.011
GVQDEERYSRSE	0.6563 ± 0.0063
CKTYPTKALVVE	0.693 ± 0.0097
HQCVNLNTIKWV	0.634 ± 0.021
GIPYALVTPPFP	0.7724 ± 0.0077
GVCGGGGGWGVA	0.6826 ± 0.0019
PQPHLLRPPPHS	0.674 ± 0.018

Sequence	protein stability index
PPPPPPLAAPPS	0.7098 ± 0.0053
CPNFYPARNSRL	0.696 ± 0.2
TTPTAPCLSSHD	0.69 ± 0.042
ILILDTKPISKT	0.7258 ± 0.006
RSRKKKERWKTE	0.707 ± 0.015
SELKNKKRKHAK	0.706 ± 0.034
AFSYRAVIALLP	0.683 ± 0.018
SIVFFLPPVSSS	0.724 ± 0.089
AARPLGLPSASG	0.7113 ± 0.0062
EHIRPNMSSYAV	0.728 ± 0.072
CQSRLPSTKNRH	0.695 ± 0.015
APPPPHPRTPKP	0.693 ± 0.069
GRRRDREAVVPW	0.732 ± 0.032
CDDGLIVNKVDS	0.665 ± 0.0092
PASPPTSPRSVP	0.742 ± 0.022
IRYARSYDMSEC	0.654 ± 0.04
AGGRGGGLGLWC	0.724 ± 0.1
VDNTRKRSTNSV	0.694 ± 0.021
PLPPLPPTRPLP	0.688 ± 0.026
PLAPPPSILPVP	0.703 ± 0.055
IPFEPSGPFMRN	0.7362 ± 0.007
KDTHNEKKGTPS	0.686 ± 0.082
ALGGKDQSRSSS	0.699 ± 0.019
APSPPFLPLTLT	0.656 ± 0.035
RFMAFGDKEILR	0.662 ± 0.033

Sequence	protein stability index
AAGTVFCRITWD	0.678 ± 0.022
PLRSDSRAESLL	0.653 ± 0.051
LLDGASALIFGG	0.617 ± 0.057
LVNVIPSHERAT	0.656 ± 0.037
GHRRLGNRWSVG	0.671 ± 0.035
ILSDRVLRVGVK	0.65502 ± 0.00049
GRVGFGSGAWLR	0.669 ± 0.0021
PWRPRMAGVDYR	0.867 ± 0.13
SFARPNTRALPT	0.656 ± 0.13
DKKGRIKIKNRQ	0.618 ± 0.026
EQNRINLNRSGL	0.762 ± 0.23
PPPPPLPLDYPP	0.638 ± 0.025
SPPTRAPISSIS	0.733 ± 0.0087
ILLPLRHHSFSD	0.643 ± 0.0087
PFAPSPRPPQPP	0.672 ± 0.02
RGRGRISGSWGT	0.718 ± 0.013
IFPVFHPPFVVI	0.557 ± 0.05
GGLWLCFVPEVM	0.563 ± 0.0077
VVPLTPPLSAPR	0.68 ± 0.031
APPPPTPPPPPA	0.7 ± 0.019
FLLSFPCAHFLL	0.598 ± 0.056
